Measurements from publication PMC7954794, “Protein context shapes the specificity of SH3 domain-mediated interactions in vivo” (Nature Communications, 2021).

B1: BBC1: yeast SH3-containing protein; SH3-deleted or knockout strain (protein, UniProt P47068 1-1157, looked up)
Myosin tail …: MSEPEVPFKVVAQFPYKSDYEDDLNFEKDQEIIVTSVEDAEWYFGEYQDSNGDVIEGIFPKSFVAVQGSEVGKEAESSPNTGSTEQRTIQPEVEQKDLPEPISPETKKETLSGPVPVPAATVPVPAATVPVPAATAVSAQVQHDSSSGNGERKVPMDSPKLKARLSMFNQDITEQVPLPKSTHLDLENIPVKKTIVADAPKYYVPPGIPTNDTSNLERKKSLKENEKKIVPEPINRAQVESGRIETENDQLKKDLPQMSLKERIALLQEQQRLQAAREEELLRKKAKLEQEHERSAVNKNEPYTETEEAEENEKTEPKPEFTPETEHNEEPQMELLAHKEITKTSREADEGTNDIEKEQFLDEYTKENQKVEESQADEARGENVAEESEIGYGHEDREGDNDEEKEEEDSEENRRAALRERMAKLSGASRFGAPVGFNPFGMASGVGNKPSEEPKKKQHKEKEEEEPEQLQELPRAIPVMPFVDPSSNPFFRKSNLSEKNQPTETKTLDPHATTEHEQKQEHGTHAYHNLAAVDNAHPEYSDHDSDEDTDDHEFEDANDGLRKHSMVEQAFQIGNNESENVNSGEKIYPQEPPISHRTAEVSHDIENSSQNTTGNVLPVSSPQTRVARNGSINSLTKSISGENRRKSINEYHDTVSTNSSALTETAQDISMAAPAAPVLSKVSHPEDKVPPHPVPSAPSAPPVPSAPSVPSAPPVPPAPPALSAPSVPPVPPVPPVSSAPPALSAPSIPPVPPTPPAPPAPPAPLALPKHNEVEEHVKSSAPLPPVSEEYHPMPNTAPPLPRAPPVPPATFEFDSEPTATHSHTAPSPPPHQNVTASTPSMMSTQQRVPTSVLSGAEKESRTLPPHVPSLTNRPVDSFHESDTTPKVASIRRSTTHDVGEISNNVKIEFNAQERWWINKSAPPAISNLKLNFLMEIDDHFISKRLHQKWVVRDFYFLFENYSQLRFSLTFNSTSPEKTVTTLQERFPSPVETQSARILDEYAQRFNAKVVEKSHSLINSHIGAKNFVSQIVSEFKDEVIQPIGARTFGATILSYKPEEGIEQLMKSLQKIKPGDILVIRKAKFEAHKKIGKNEIINVGMDSAAPYSSVVTDYDFTKNKFRVIENHEGKIIQNSYKLSHMKSGKLKVFRIVARGYVGW
B2: ABP1: yeast SH3-containing protein; SH3-deleted (D) or gene-deleted (KO) strain (protein, UniProt P15891 2-592, looked up)
Actin-binding protein: ALEPIDYTTHSREIDAEYLKIVRGSDPDTTWLIISPNAKKEYEPESTGSSFHDFLQLFDETKVQYGLARVSPPGSDVEKIIIIGWCPDSAPLKTRASFAANFAAVANNLFKGYHVQVTARDEDDLDENELLMKISNAAGARYSIQTSSKQQGKASTPPVKKSFTPSKSPAPVSKKEPVKTPSPAPAAKISSRVNDNNDDDDWNEPELKERDFDQAPLKPNQSSYKPIGKIDLQKVIAEEKAKEDPRLVQKPTAAGSKIDPSSDIANLKNESKLKRDSEFNSFLGTTKPPSMTESSLKNDDDKVIKGFRNEKSPAQLWAERKAKQNSGNAETKAEAPKPEVPEDEPEGEPDVKDLKSKFEGLAASEKEEEEMENKFAPPPKKSEPTIISPKPFSKPQEPVKAEEAEQPKTDYKKIGNPLPGMHIEADNEEEPEENDDDWDDDEDEAAQPPLPSRNVASGAPVQKEEPEQEEIAPSLPSRNSIPAPKQEEAPEQAPEEEIEEEAEEAAPQLPSRSSAAPPPPPRRATPEKKPKENPWATAEYDYDAAEDNELTFVENDKIINIEFVDDDWWLGELEKDGSKGLFPSNYVSLGN

System: Abp1 PPIs
Assay: DHFR-PCA of Abp1 SH3-swapped baits (Fig. 2B-D, S2C, S2F);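 on Protein-protein interaction distance between Abp1 SH3-swapped baits, to ABP1: Euclidean distance between DHFR-PCA score profiles of the baits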;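 on Protein-protein interaction distance between Abp1 SH3-swapped baits, to BEM1-2: Euclidean distance between DHFR-PCA score profiles of the baits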;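 on Protein-protein interaction distance between Abp1 SH3-swapped baits, to BOI1: Euclidean distance between DHFR-PCA score profiles of the baits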;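 on Protein-protein interaction distance between Abp1 SH3-swapped baits, to BZZ1-1: Euclidean distance between DHFR-PCA score profiles of the baits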
Type: cell-based, Saccharomyces cerevisiae
Settings: for Protein-protein interaction distance between Abp1 SH3-swapped baits, to ABP1: Abp1 bait with swapped SH3, distance to bait with ABP1 SH3; for Protein-protein interaction distance between Abp1 SH3-swapped baits, to BBC1: distance to Abp1 bait with BBC1 SH3; for Protein-protein interaction distance between Abp1 SH3-swapped baits, to BEM1-1: distance to Abp1 bait with BEM1-1 SH3; for Protein-protein interaction distance between Abp1 SH3-swapped baits, to BEM1-2: distance to Abp1 bait with BEM1-2 SH3; for Protein-protein interaction distance between Abp1 SH3-swapped baits, to BOI1: distance to Abp1 bait with BOI1 SH3; for Protein-protein interaction distance between Abp1 SH3-swapped baits, to BOI2: distance to Abp1 bait with BOI2 SH3; for Protein-protein interaction distance between Abp1 SH3-swapped baits, to BUD14: distance to Abp1 bait with BUD14 SH3; for Protein-protein interaction distance between Abp1 SH3-swapped baits, to BZZ1-1: distance to Abp1 bait with BZZ1-1 SH3; for Protein-protein interaction distance between Abp1 SH3-swapped baits, to BZZ1-2: distance to Abp1 bait with BZZ1-2 SH3; for Protein-protein interaction distance between Abp1 SH3-swapped baits, to CDC25: distance to Abp1 bait with CDC25 SH3; for Protein-protein interaction distance between Abp1 SH3-swapped baits, to CTTN: distance to Abp1 bait with CTTN SH3; for Protein-protein interaction distance between Abp1 SH3-swapped baits, to CYK3: distance to Abp1 bait with CYK3 SH3; for Protein-protein interaction distance between Abp1 SH3-swapped baits, to DBNL: distance to Abp1 bait with DBNL SH3; for Protein-protein interaction distance between Abp1 SH3-swapped baits, to FUS1: distance to Abp1 bait with FUS1 SH3; for Protein-protein interaction distance between Abp1 SH3-swapped baits, to HCLS1: distance to Abp1 bait with HCLS1 SH3; for Protein-protein interaction distance between Abp1 SH3-swapped baits, to HOF1: distance to Abp1 bait with HOF1 SH3; for Protein-protein interaction distance between Abp1 SH3-swapped baits, to HSE1: distance to Abp1 bait with HSE1 SH3; for Protein-protein interaction distance between Abp1 SH3-swapped baits, to LSB1: distance to Abp1 bait with LSB1 SH3; for Protein-protein interaction distance between Abp1 SH3-swapped baits, to LSB3: distance to Abp1 bait with LSB3 SH3; for Protein-protein interaction distance between Abp1 SH3-swapped baits, to MYO3: distance to Abp1 bait with MYO3 SH3; for Protein-protein interaction distance between Abp1 SH3-swapped baits, to MYO5: distance to Abp1 bait with MYO5 SH3; for Protein-protein interaction distance between Abp1 SH3-swapped baits, to NBP2: distance to Abp1 bait with NBP2 SH3; for Protein-protein interaction distance between Abp1 SH3-swapped baits, to PEX13: distance to Abp1 bait with PEX13 SH3; for Protein-protein interaction distance between Abp1 SH3-swapped baits, to PIN3: distance to Abp1 bait with PIN3 SH3; for Protein-protein interaction distance between Abp1 SH3-swapped baits, to RVS167: distance to Abp1 bait with RVS167 SH3; for Protein-protein interaction distance between Abp1 SH3-swapped baits, to SDC25: distance to Abp1 bait with SDC25 SH3; for Protein-protein interaction distance between Abp1 SH3-swapped baits, to SLA1-1: distance to Abp1 bait with SLA1-1 SH3; for Protein-protein interaction distance between Abp1 SH3-swapped baits, to SLA1-2: distance to Abp1 bait with SLA1-2 SH3; for Protein-protein interaction distance between Abp1 SH3-swapped baits, to SLA1-3: distance to Abp1 bait with SLA1-3 SH3; for Protein-protein interaction distance between Abp1 SH3-swapped baits, to YSC84: distance to Abp1 bait with YSC84 SH3
In short: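 Yeast DHFR-PCA in which Abp1 baits, carrying their SH3 replaced by CRISPR–Cas9 with one of 27 yeast SH3s or human CTTN, HCLS1 or DBNL SH3s, were mated against 575 SH3-associated DHFR F[3] preys plus 40 negative controls. Four tests were run per PPI. Diploids were selected twice (48 h, 30 °C), then grown 4 days on PCA selection media.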

[1] = number of PPIs, difference, Abp1 SH3-swapped with the listed SH3, Fig2D,S2F

Molecule	Protein-protein interaction distance between Abp1 SH3-swapped baits, to ABP1 (sheet Fig2C)	Protein-protein interaction distance between Abp1 SH3-swapped baits, to BBC1 (sheet Fig2C)	Protein-protein interaction distance between Abp1 SH3-swapped baits, to BEM1-1 (sheet Fig2C)	Protein-protein interaction distance between Abp1 SH3-swapped baits, to BEM1-2 (sheet Fig2C)	Protein-protein interaction distance between Abp1 SH3-swapped baits, to BOI1 (sheet Fig2C)	Protein-protein interaction distance between Abp1 SH3-swapped baits, to BOI2 (sheet Fig2C)	Protein-protein interaction distance between Abp1 SH3-swapped baits, to BUD14 (sheet Fig2C)	Protein-protein interaction distance between Abp1 SH3-swapped baits, to BZZ1-1 (sheet Fig2C)	Protein-protein interaction distance between Abp1 SH3-swapped baits, to BZZ1-2 (sheet Fig2C)	Protein-protein interaction distance between Abp1 SH3-swapped baits, to CDC25 (sheet Fig2C)	Protein-protein interaction distance between Abp1 SH3-swapped baits, to CTTN (sheet Fig2C)	Protein-protein interaction distance between Abp1 SH3-swapped baits, to CYK3 (sheet Fig2C)	Protein-protein interaction distance between Abp1 SH3-swapped baits, to DBNL (sheet Fig2C)	Protein-protein interaction distance between Abp1 SH3-swapped baits, to FUS1 (sheet Fig2C)	Protein-protein interaction distance between Abp1 SH3-swapped baits, to HCLS1 (sheet Fig2C)	Protein-protein interaction distance between Abp1 SH3-swapped baits, to HOF1 (sheet Fig2C)	Protein-protein interaction distance between Abp1 SH3-swapped baits, to HSE1 (sheet Fig2C)	Protein-protein interaction distance between Abp1 SH3-swapped baits, to LSB1 (sheet Fig2C)	Protein-protein interaction distance between Abp1 SH3-swapped baits, to LSB3 (sheet Fig2C)	Protein-protein interaction distance between Abp1 SH3-swapped baits, to MYO3 (sheet Fig2C)	further results
B1	7.08	0.00	12.07	30.95	9.448	12.67	15.23	7.773	9.168	24.45	6.802	25.11	7.329	16.64	6.39	29.63	7.295	13.47	13.63	13.06	Protein-protein interaction distance between Abp1 SH3-swapped baits, to MYO5 (sheet Fig2C): 12.56; Protein-protein interaction distance between Abp1 SH3-swapped baits, to NBP2 (sheet Fig2C): 14.24; Protein-protein interaction distance between Abp1 SH3-swapped baits, to PEX13 (sheet Fig2C): 10.86; Protein-protein interaction distance between Abp1 SH3-swapped baits, to PIN3 (sheet Fig2C): 11.25; Protein-protein interaction distance between Abp1 SH3-swapped baits, to RVS167 (sheet Fig2C): 9.304; Protein-protein interaction distance between Abp1 SH3-swapped baits, to SDC25 (sheet Fig2C): 31.85; Protein-protein interaction distance between Abp1 SH3-swapped baits, to SLA1-1 (sheet Fig2C): 27.19; Protein-protein interaction distance between Abp1 SH3-swapped baits, to SLA1-2 (sheet Fig2C): 16.91; Protein-protein interaction distance between Abp1 SH3-swapped baits, to SLA1-3 (sheet Fig2C): 13.32; Protein-protein interaction distance between Abp1 SH3-swapped baits, to YSC84 (sheet Fig2C): 14.14; PPIs gained by Abp1 - SH3-dependent PPIs gained by Abp1 [1]: 2; SH3-dependent PPIs - SH3-dependent PPIs gained by Abp1 [1]: 19; SH3-dependent PPIs gained by Abp1 (number of PPIs, Abp1 SH3-swapped with the listed SH3, DHFR-PCA, Fig2D,S2F): 0; Interactions in Abp1 (number of interactions of Abp1 carrying the named SH3, sheet FigS2A-B): 78
B2	0.00	7.08	14.06	32.3	11.59	14.52	17.23	9.504	10.54	26.13	9.394	26.78	8.805	18.44	7.682	30.98	9.43	13.24	13.53	12.85	Protein-protein interaction distance between Abp1 SH3-swapped baits, to MYO5 (sheet Fig2C): 12.37; Protein-protein interaction distance between Abp1 SH3-swapped baits, to NBP2 (sheet Fig2C): 16.16; Protein-protein interaction distance between Abp1 SH3-swapped baits, to PEX13 (sheet Fig2C): 10.96; Protein-protein interaction distance between Abp1 SH3-swapped baits, to PIN3 (sheet Fig2C): 11.43; Protein-protein interaction distance between Abp1 SH3-swapped baits, to RVS167 (sheet Fig2C): 9.548; Protein-protein interaction distance between Abp1 SH3-swapped baits, to SDC25 (sheet Fig2C): 33.14; Protein-protein interaction distance between Abp1 SH3-swapped baits, to SHO1 (distance to Abp1 bait with SHO1 SH3, sheet Fig2C): 8.989; Protein-protein interaction distance between Abp1 SH3-swapped baits, to SLA1-1 (sheet Fig2C): 28.73; Protein-protein interaction distance between Abp1 SH3-swapped baits, to SLA1-2 (sheet Fig2C): 19.01; Protein-protein interaction distance between Abp1 SH3-swapped baits, to SLA1-3 (sheet Fig2C): 13.16; Protein-protein interaction distance between Abp1 SH3-swapped baits, to YSC84 (sheet Fig2C): 13.97
